Experimental data as given in publication doi:10.1101/2024.05.02.592161.

Biological target: Mx_pmut, pore-engineered Myxococcus xanthus encapsulin shell protein (Myxococcus xanthus) (UniProt Q1D6H4)
Assay: cryo-EM structure; purified Mx_pmut co-expressed with SNAP-tag-TP cargo (T=3/T=4 sample), 4.1 mg/mL, 150 mM NaCl, 25 mM Tris pH 8.0; icosahedral symmetry imposed

SNAP-tag carrying an Mx-targeting peptide (TP) at its C-terminus
copies of cargo in a T=3 shell: 180 copies | copies of cargo in a T=4 shell: 240 copies
